Experimental data reported in article PMC9841405.

T1: AtTCP10-DBD RR mutant (UniProt O82277 1-87, R46A;R48A)
T1 sequence: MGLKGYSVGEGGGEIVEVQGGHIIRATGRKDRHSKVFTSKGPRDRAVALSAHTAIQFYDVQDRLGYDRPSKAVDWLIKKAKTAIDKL

T2: AtTCP10-DBD DRH RR mutant (UniProt O82277 1-87, D31A;R32A;H33A;R46A;R48A)
T2 sequence: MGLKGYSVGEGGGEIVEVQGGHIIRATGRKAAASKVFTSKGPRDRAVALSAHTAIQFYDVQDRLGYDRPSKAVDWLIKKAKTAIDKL

T3: AtTCP10-DBD DRH mutant (UniProt O82277 1-87, D31A;R32A;H33A)
T3 sequence: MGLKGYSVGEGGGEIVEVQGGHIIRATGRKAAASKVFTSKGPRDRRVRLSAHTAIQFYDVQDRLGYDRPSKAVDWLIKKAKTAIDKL

T4: AtTCP10-DBD (UniProt O82277 1-87)
T4 sequence: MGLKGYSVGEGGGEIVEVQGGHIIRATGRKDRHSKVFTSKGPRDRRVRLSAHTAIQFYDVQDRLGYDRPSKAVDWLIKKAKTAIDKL


Experiments:
AtTCP10-DBD RR mutant = target: T1, AtTCP10-DBD RR mutant; assay: ITC
[1] = target: T2, AtTCP10-DBD DRH RR mutant; assay: ITC
AtTCP10-DBD DRH mutant [2] = target: T3, AtTCP10-DBD DRH mutant; assay: ITC
AtTCP10-DBD = target: T4, AtTCP10-DBD; assay: ITC
AtTCP15-DBD [3] = target: T5, AtTCP15-DBD (UniProt Q9C9L2 51-113); assay: EMSA
AtTCP10-DBD DRH mutant [4] = target: T3, AtTCP10-DBD DRH mutant; assay: EMSA
AtTCP15-DBD [5] = target: T5, AtTCP15-DBD; assay: ITC

Row | Binder | Kd (AtTCP10-DBD) [nM] | binding result (AtTCP10-DBD DRH mutant [4]) | Kd (AtTCP15-DBD [5]) [nM] | also measured
1 | three-site class II DNA (dsDNA) DNA 1: ATGTGGTCCCCACT DNA 2: TAGTGGGGACCACA | 8.5 | – | – | Kd (AtTCP10-DBD RR mutant): 1130 nM; Kd [1]: 1620 nM; Kd (AtTCP10-DBD DRH mutant [2]): 353 nM
2 | one-site class I DNA (dsDNA) DNA 1: ATAGAGGTCCGTGT DNA 2: TACACGGACCTCTA | – | – | – | binding result (AtTCP15-DBD [3]): binds
3 | two-site class II DNA (dsDNA) DNA 1: ATGTGGTCCCGTGT DNA 2: TACACGGGACCACA | 351 | binds | – | –
4 | two-site class I DNA (dsDNA) DNA 1: ATGTGGGTCCGTGT DNA 2: TACACGGACCCACA | – | – | 109 | –
5 | three-site class I DNA (dsDNA) DNA 1: ATGTGGGTCCCACT DNA 2: TAGTGGGACCCACA | – | – | 38.3 | –
6 | one-site class II DNA (dsDNA) DNA 1: ATAGAGTCCCGTGT DNA 2: TACACGGGACTCTA | 366 | binds | – | –
